Assay: soluble on expression in E. coli; label from the status in PepcDB or PDB records

Sequence	soluble on expression in E. coli
MGSDKIHHHHHHMKVAIVHYWFVGMRGGEKVIEALCELYPQADIFTHVFVPEAVSDRIRRHRVTTSFINSLPRASSMYKSYLPLMPLALEHLDLSGYDLVISSESGPAKGIIPPPDALHVCYCHTPMRYIWNMYHDYRNGAGRLTKLLMPPLAHYLRMWDVSTASRVDSFIANSATVADRVRRYYRRDSVVIHPPVDTAVFTPVPASELGDYYLMAGELVAYKRPDLAVQAFNQIGRKLVVIGGGEMLNELKRIAGPNVTVMGSQPFEVLRHHYMHCRALIFPGEEDFGMVPVEAMAAGRPVIAFGKGGATETVVPGLSGLFFQAQEVEQIRSAILQLDDIEIDPAKISSHAARFGKQAFFDGFRSHIDQLLAAKAQATARNRG	not soluble
MKVLHMNAGAEEGGGKTHIISLLSQFSKEEVELMVFEEGAIAREARNLGIQVHVFTQSSRYDLSILSKIKAFINENQFDIVHTHGARANFYLSLLKKGIKAKWIMTVHSDPTLDFMKRGLKGWVFTKLNLRSFRKVDLFFAITENFKRNIIKLGVPEEKICTVYNGIEYDSNPAKPYDKSEFGIDEGIFTAIQVARLHPVKGHDILFEALQKIKIPNIKVLLLGDGPIEAELKEMVKQKGLEDKVMFLGFRIDSKELYASAHINLLTSYSESFPLVLLEAANQRLTSIATNVGDMKKLIVDDTYGWIVPIGDADSLANALENAYEKWLNGELEAMGNRLYTHASTHFSLKNLYEDTYNAYKTLLLK	not soluble
MAHHHHHHMSAEGLSRFFTENLTEEGRSDLNQWEAKTLEFAQRVNRDGCEGVAFITSGGTAVPLEVHAVRFVTNFSSGGRGAVLVEELLARGWACILLRSKTSQLPFRRLVDNMTTEQFFAELNAPQKSCDVSAAIEAYTKYKSRFLEIPYYTVVEYLYLFSLLTGTLSHRAECLRQTPMMLLAAAAVSDYYIPESRLSHHKMSGGDGLTIQFNNVPKILDLISEEWHGSSRAAPRYLITFKLETEEEQLKAKALRNLGLYRCDAVVANMLQNYRERVLVFWNGEEQNPTLLHRSPNGSVESLMIDHVLQRIKNHAKGCGMQYKLEGRRR	soluble
MAHHHHHHMKNFFILHLRNNYSIFLNKPLQVFTLNVKLNSHVKVNYKHELLTYEFRKITYVKKKKKKSYHNCDGRYITTLNKTININEKYSKLKNDGLLNSTPDNHIKDNIIKEDLLYRKNNEKENEEVIKSNIDENKNVHMNDQNEQNKHCYNKLLIESCCHIDKDVKKSLLEIFQYKEFTDVQRIVYDNIIKEKKQNDLLIQAKTGTGKTIAYLLLSINDIIKNKILSVHTLIIVPTRELANQIYNECKLLLTYKHNINVLTLTGGIKRRDDQLNIRRIKPDIIICTVGRLLDHFESTYLFNTLFENLKMLIIDEADQLLSTGYENDIHRLLTYLPSNRRNILLSATLGYNLDEIRKKMCKSDYIYLNCVKDISKHTSDQLIQYVLFHKAIDTTIILYNLLIEHMRLNQFTYKIIVFFPTARATSFYAQFFINQLKISVYEIHRKKEMAHRQITANRFSMESVGILFTSDISSRGLNYPDITLIIQVNTPISREQYIHRVGRTARSNKKGMAIILLNEADELFYQEIKDLNIQKLNAQNYTLKNTNLSNYLSTWMSNTQLLYLAYAYYSSILRFYKTKYTHLKINDDEIIDAVNNMLLSTGLVEQPYISRNLATTLNMQNNVKLKIRKDLDDILLL	not soluble
MGSDKIHHHHHHMNIINFIKNYLSTPMSSLTFAPAHQLARMIRNREVSAVEVLNAYLAQIAKHNSKLNAICTLDEENAYLRARLADEALARGENWGALHGVPITIKDIFETAGLLTTAGYIPLKDYVPQQDATVVARLRTAGAVILGKTNMAELAGDYQSTNSLFPQVNNPWNLDYTAGGSSGGSAAAVAAGLSSLDLGNDIAGSVRQPAHFCGVYGLKPTDRRISTAGQIPEVPGMPVCLRQMMTVGCFARSLEDIRLCFSLIAGSDLRRPDVPPIPLDNPSGKSLQNLKIAWLDEWVEVPVASEIQVAMTAIAHTLTQAGVQIEPWLPKNFDLSKTLNLYGRMAAYINIYAQPVDRYNLHRSWQQIFRTATQGEKELRKLGDFSRLLPDLLNPRLKGYFEVLTERDCFTAQMDEALEPWDAWLTPVAATPAFTHRPAWSAIEIDGRPYPHAVANGAYTMPFNLSGHPAVVIPIGHTQDGLPIGMQVVGKRWREMELLAIAQELDKVINAFRSPFEII	not soluble
MAGQISPTRSALLASKASLKTANGGADLLKRKRDALIGEFFALVKDALAAREQLSSVSKGAYTSLFGAKAWDSPEAVESLSLAGTGDYAVDMQIESIYGVKVPKINIPERAAQADFSPINVGARTIQASNDFGGVLEAIVKVAATETKLRRIGEEIKKTSRRVNALEQVVIPGIHDDIRFIRSVLDQREREAGYTQKKIKAKIEGKNKEAREAAAATSHGSAADAAALEHHHHHH	not soluble
MTVLQLPNIPRITLLGTTALLFEAPGELDLAPQQRIWALADLSKNWPQVREAVPGMNNLMLTFETPPRDLSGLKTRLMEAWEHCQPLPLQGRIIELPVVYGGDGGPHMADVIAHTGLDIETIANLHCEPLYPVYALGSHPGYCYLGGMDLRLATPRRKVPVLDIGAGSVSIGGVQTGISASAGPSGWNTIGRTEMVFFDADQHPPALLQPGDQLRLRIERIIRLEHHHHHH	not soluble
MTDILIDNTATETVRTLIRAFPLVPVSQPPEQGSYLLAEHDTVSLRLVGEKSSVIVDFASGAAQYRRTKGGGELIAKAVNHTAHPTVWDATAGLGRDSFVLASLGLAVTAFEQHPAVACLLSDGIRRALLNPETQNTAAHINLHFGNAAEQMPALVQTQGKPDIVYLDPMYPERRKSAAVKKEMTYFHRLVGEAQDEAALLHTARQTAKKRVVVKRPRLGEHLAGQDPAYQYTGKSTRFDVYLPYGTDKGLEHHHHHH	soluble
AVSDQRLSEATLRELEDERQRAGLPEKPEIPEGWTIDRKPGVTHFTMRKSHGDEEIILQLTGEDRSNEEITRTLDVLVVNGGKALVFGMSVEDGEFVINNVCFRHDGKLALDTSAEAQFQKSQLYMGPDLADLEDHLVDSFTSYLSARGVNDTLANFIDQFSLWSEQADYEEWLSSINKFVS	soluble
MGHHHHHHSHMADTLAILNEFLLERSKREAEEENQIANKTGKDAQFEEDWQLSQFWYSTETKHALRDVVRKLLAERTKDSGDFSIALLSCPSLYKDIREIHDTVHIFEFDKRFEAYGTDFVHYDLNCVGSNPDYLKEHHQQYDLIVADPPF	soluble
MSLSVTRENFDEWMVPVYVPAPFIPVRGEGSRLWDQQGKEYIDFAGGIAVNALGHAHPALREALNEQANRFWHIGNGYTNEPALRLAKKLIDATFAERVFFCNSGAEANEAALKLARKYAHDRVGNHKSGIVAFKNAFHGRTLFTVSAGGQPTYSQDFAPLPPDIRHAAYNDLNSASALIDDNTCAVIVEPVQGEGGVIPATKAFLQGLRELCDRHQALLIFDEVQTGVGRTGELYAYMHYGVTPDILTTAKALGGGFPIGAMLTTQDYASVMTPGTHGTTYGGNPLATAVAGKVLDIINTPEMQNGVRQRHDAFIERLNTLNVRFGMFSEIRGLGLLLGCVLQTEFAGKAKLIAQEAAKAGVMVLIAGGDVVRFAPALNVSDEEIATGLDRFALACERLQTGGVPCG	not soluble
MSLHSLQRKVLRTICPDQKGLIARITNICYKHELNIVQNNEFVDHRTGRFFMRTELEGIFNDSTLLADLDSALPEGSVRELNPAGRRRIVILVTKEAHCLGDLLMKANYGGLDVEIAAVIGNHDTLRSLVERFDIPFELVSHEGLSRNEHDQKMADAIDAYQPDYVVLAKYMRVLTPEFVARFPNKIINIHHSFLPAFIGARPYHQAYERGVKIIGATAHYVNDNLDEGPIIMQDVIHVDHTYTAEDMMRAGRDVEKNVLSRALYKVLAQRVFVYGNRTIILEGHHHHHH	soluble
MGSSHHHHHHSSGRENLYFQGHMPCQPACPVSADTWAPSAVPDDYRYADLHLPQQVGQASLAAECAVAISYNGLNQAVMMASPEDIEDFVRGFSLSSGFVESIDDIYEIRVSGQGESLHAEVEISSRAFWNLKRQRRQLAGTSGCGLCGVEALEQALPQLPERSPQALPPAAHLGALRQRIEQAQRLARHSGALHAALYFDGHGELRLCREDIGRHNALDKLIGALHRQGLDAARGFAVVTSRCSLELIHKAVRAGIGTLVSLSAPTALTVQWARRHQLNLIHQPHHNAPRVYSPAPAATE	soluble
MSLSRRIGIIDTTLRDAQQCLWATRMTAGMMDPIAQALDEAGFDMIDFMAPVQFDVCVRYLREDPFEKARHFRKRFRNTPMRSYCRSKSLVGFSMVPDDMVELWIDCLAANGFSAVGTLDSLLDVDNMKVSVGRAKKIGIKSIGALVFCESPLHTDALYAGTAAELVRCGVDGIMLKDSGALLTIERIRTLIPALRAAVGDIPIEVHSHSNTGLVQRVYLDAADLGIDQLHTSIAPLAGGVAQPSIQNMTRNLAQRGYRTDVDMARVEEISAYLHRLAARYDFPLGKEGHHHHHH	not soluble
SGRPVAELLRKIHTSKALLDMLKRLGKEPLNPGALLSQLKQAVFAVQQSSPLIQEGIKYLEEHLHEVHFGEKVVCHCDVNHNNWLLSEDNQLYLIDWDGAMIADPAMDLGPLLYHYVEKPAWESWLSMYGIELTESLRLRMAWYVLSETITFIAWHKAKGNDKE	not soluble
TEKTKAVETTDVALAIDTLVQNGLKALDEMRQLNQEQVDYIVAKASVAALDAHGELALHAVEETGRGVFEDKATKNLFACEHVVNNMRHTKTVGVIEEDDVTGLTLIAEPVGVVCGITPTTNPTSTAIFKSLISLKTRNPIIFAFHPSAQESSAHAARIVRDAAIAAGAPENCVQWIEQPSIDATNALMNHDGIATILATGGNAMVKAAYSCGKPALGVGAGNVPAYVEKSANIRQAAHDIVMSKSFDNGMVCASE	not soluble
PHANGLEQISGGDTNMFRLAKEQGYETYFYSAQAENEMAILNLIGKKWIDHLIQPTQLGYGNGDNMPDEKLLPLFDKINLQQGKHFIVLHQRGSHAPYGALLQPQDKVFGEADIVDKYDNTIHKTDQMIQTVFEQLQKQPDGNWLFAYTSDHGQYVRQDIYNQGTVQPDSYLVPLVLYSPDKAVQQAANQAFAPCEIAFHQQLSTFLIHTLGYDMPVSGCREGSVTGNLITGDAGSLNIRDGKAEYVYPQ	not soluble
MSLATESDETSLDFPDHALERVRDILRLRRNFDISSYKDKYLKRRIAIRVRATRSVTADAYCDLVARNERELELLLKGLTIHVSQFFRNSSTFEALRGTVLPAIFDRLRREGRDSATFWSVGCASGEEPYSLAIILRDSFRESLKEFKVSLVATDIDGGILDAARAGIYSPERLAEVPAEVKDRYFRPMGERFVLDPTIREMVDFRRSDLFDPESSVESDLILCRNVLIYFERSEQARILRGFVSSLCTGGVLVLGKAETLVAEVRQRFTTLCPMERIYQKNRFSVYEGHHHHHH	soluble
MAKEKARYFTFLLYPESIPSDWELKLETLGVPMAISPLHDKDKSSIKGQKYKKAHYHVLYIAKNPVTADSVRKKIKLLLGEKSLAMVQVVLNVENMYLYLTHESKDAIAKKKHVYDKADIKLINNFDIDRYVTLDVEEKTELFNVVVSLIRAYTLQNIFDLYDFIDENGETYGLTINLVNEVIAGKTGFMKLLFDGAYQRSKRGTKNEER	soluble
MSLQSSVASGLSLNPEQLAVMAVGSGGVVVSLSAPAETVIVIVEHLDHKEEVIVQGREIVPSMDGHFDTIQELNSRFTESAPREKIEIGNRERPFKLHVVNVGDSRAMLVTRESYAALTRDHVPDDPGELRRIQETGDEGKKDNPSPSPITAKPDVRYFYATWEDVLILHSDGLLAESDRWEEVAGAALQCMESEPRIRGVATCLVQQAYRRGSTDNITALVSTFQKPSLNEGHHHHHH	soluble
